Earlier results on one substance are cited in patent US5925739A, “Pharmaceutical formulation for subcutaneous intramuscular or intradermal administration of factor VIII” (Pharmacia & Upjohn AB, priority 1994, dated 1999).

The conditions of the data set: hemophilia B patients, injected into subcutaneous tissue.

Consider “human factor IX: coagulation factor IX, molecular mass of about 56 kDa”, for which the “transport into the circulation” value is “poorly and very slowly transported into the circulation”.
